Reference: patent KR20240094169A (dated 2024)

T1: BCMA (B-cell maturation antigen) expressed on multiple myeloma H929 cells (UniProt Q02223 1-184, limits assumed)
T1 construct: whole, on cells; also called TNFRSF17; CD269
T1 sequence (looked up): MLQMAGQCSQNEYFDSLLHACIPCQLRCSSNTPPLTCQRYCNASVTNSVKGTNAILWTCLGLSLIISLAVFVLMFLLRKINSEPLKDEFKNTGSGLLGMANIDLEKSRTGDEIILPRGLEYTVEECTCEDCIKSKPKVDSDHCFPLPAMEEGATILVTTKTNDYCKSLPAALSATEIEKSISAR


Each binder was assayed against T1, BCMA (B-cell maturation antigen) … (assay: flow cytometry on H929 cells, 1 ㎍ sdAb, PE-conjugated secondary antibody).

Row | Binder | binding result
1 | 항-BCMA sdAb No.7 (VHH, Camel-derived single-domain antibody from a phage library; also called anti-BCMA sdAb No.7; 항-BCMA No.7) VHH: KLEESGGGSVQTGGSLRLTCAASGSIFSSGFMAWFRQAPGKEREFVSGISWRGDSTGYADSVKGRFTISRDNAKNTVDLQMNSLKPEDTAIYYCAARGTDTAYWGQGTQVTVSS | binds
2 | 항-BCMA sdAb No.19 (VHH, Camel-derived single-domain antibody from a phage library; also called anti-BCMA sdAb No.19; 항-BCMA No.19) VHH: KLEESGGGSVQTGGSLRLTCAASGIIFSDDAIGWFRQAPGKERELVSLIDSKSSTYYADSVKGRFTISRDNAKNTVDLQMNSLKPEDTAIYYCNDHKRRQAMEYWGQGTQVTVSS | binds
3 | 항-BCMA sdAb No.11 (VHH, Camel-derived single-domain antibody from a phage library; also called anti-BCMA sdAb No.11; 항-BCMA No.11) VHH: KLEESGGGSVQTGGSLRLTCAASGSISRLDNMGWFRQAPGKERELVAAINSKSNKTNYADSVKGRFTISRDNAKNTVDLQMNSLKPEDTAIYYCANWSFDKHRAYWGQGTQVTVSS | binds
